From the supplement of paper PMC12455559 come the findings set out here.

Series [1] is described as follows: purified protein yield per well (BCA); higher = higher soluble expression. In short, it runs like this:
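Purified protein yield per well is reported, as measured by the Pierce Rapid Gold BCA kit. The enzymes came from E. coli C41(DE3) autoinduction cultures of 2 mL with 100 µg/mL kanamycin, held at 37 °C for 2 h and 18 °C for 40 h, then lysed and purified on Ni-charged magnetic beads with SUMO protease release. The detection threshold is 25 ug (0.1 mg/mL), and lower values are under it.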

A short description of series [2]: PET hydrolysis, aromatic products released after 48 h (umol product/mg enzyme); higher = more PET depolymerization activity. A digest of the protocol: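 Amorphous PET film or crystalline PET powder (3.5 mg) in 450 μL of 50 mM NaCitrate (pH 4.5, 5.5), 50 mM NaPhosphate (pH 6.5, 7.5) or glycine (pH 8.5) received 5 μg (50 μL) of candidate enzyme. That enzyme was purified on nickel beads and freed of its tag by SUMO cleavage. After 48 h at 40 or 60 °C in sealed plates without shaking, absorbance of the supernatant at 260 and 280 nm was read against buffer blanks. PET hydrolysis activity is this aromatic product expressed per mg enzyme.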

Series [3] is described as follows: melting temperature (DSF); higher = more thermostable. A digest of the protocol:
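Values are melting temperatures from differential scanning fluorimetry. Candidate enzymes were expressed in E. coli C41(DE3), purified on nickel beads and freed by SUMO protease cleavage. In sealed PCR plates on a Bio-Rad CFX96, 45 μL enzyme (0 to 0.3 mg/mL) was combined with 5 μL 5X Sypro Orange. Fluorescence was recorded from 25 °C for 250 cycles, rising 0.3 °C per cycle at a ramp of 0.3 °C/s.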

Where [4] appears, read: substrate: cryPow, 40 °C, pH 5.5.
Setting [5] is: substrate: cryPow, 40 °C, pH 6.5.
Setting [6] is: substrate: cryPow, 40 °C, pH 7.5.
The mark [7] stands for this setting: substrate: cryPow, 40 °C, pH 8.5.
Where [8] appears, read: substrate: cryPow, 40 °C, pH 4.5.
Setting [9] is: substrate: aFilm, 40 °C, pH 4.5.
The mark [10] stands for this setting: substrate: aFilm, 40 °C, pH 5.5.
The mark [11] stands for this setting: substrate: aFilm, 40 °C, pH 6.5.
The mark [12] stands for this setting: substrate: aFilm, 40 °C, pH 7.5.
Setting [13] is: substrate: aFilm, 60 °C, pH 4.5.
Where [14] appears, read: substrate: aFilm, 60 °C, pH 5.5.
[15] abbreviates: substrate: aFilm, 60 °C, pH 6.5.
Setting [16] is: substrate: aFilm, 60 °C, pH 7.5.
Setting [17] is: substrate: cryPow, 60 °C, pH 4.5.
Setting [18] is: substrate: cryPow, 60 °C, pH 5.5.
Setting [19] is: substrate: cryPow, 60 °C, pH 6.5.
Where [20] appears, read: substrate: cryPow, 60 °C, pH 7.5.

± gives the standard deviation of the averaged measurements.

In the case of “ATGPSSPCSNCTRGPDPTVASLKSATGPYTTAKFSVSGYLKGFGDSTVYYPTNASGKMGAIAVIPGYVSYEDSIKWWGPRLASHGFVVMTMNTSTIYDQPDSRATQLSKALDYMIAQSGSSSSPIYNKVDSTRLGVIGWSMGGGGTLKLSTQRSINAIIPQAPYYAGSNSFNTIKTPALILACGADAVAPVGVHASPFYNRIPGTTPKAYLEIYGGSHFCANSGYPNEDLLGMYGIAWMKRFIDFDSRYSKFLCGPNHTADLNISEYRQNCNY [DP078]”, the “purified protein yield per well” value in series [1] is 29 µg. Besides, the PET hydrolysis was determined as 9 in series [2] (setting [4]), 47 in series [2] (setting [5]), 60 in series [2] (setting [6]) and 66 in series [2] (setting [7]). In series [3], the melting temperature was found to be 59.5 C.

Take “ATGPSSPCTNCTRGPNPTVAALKSNSGPFSTAKFSVSGYLKGFGDSTVYYPTNTTGKMGAIAVIPGYLSYESSIEWWGPRLASHGFVVITMNTNTIYDQPDSRATQLSKALDYVIAQSNSSSSPIAGKVDSTRLGAIGWSMGGGGSLKLSTQRSLNAIIPQAPYYAGSNSFNTIKTPTLILACGVDAVAPVAAHASPFYNKIPNTTPKAFLEIYGGSHFCANSGYPNQDLLGMYGISWMKRFIDFDKRYSQFLCGPNHQADLAISEYRQNCNY [ESM048]”: the “purified protein yield per well” value in series [1] worked out at 48 µg. The PET hydrolysis in series [2] (setting [8]), in series [2] (setting [4]), in series [2] (setting [5]) and in series [2] (setting [6]) was less than 3 each time. In series [3], the melting temperature was determined as 49.6 C.

In the case of “ATNPYERGPAPTGTSVAADRGPFATAQLTVAKGNGFGGGVVYYPTDTSQGTFGAIAIAPGYGTEWRWYAWLGPRLASFGFVVLGIETNSLDDYADARGAQLLSALDWLVDSSPVRDRVDRTRLAVGGHSMGGGGALTAAIQRPSLMTAIGMAPYVPDGILRTIKIPTVLFGGQTDTTVTPSYLASAYATIPATVQRAYPEIANEGHGFAAGGGGGNSGAFARTMMIWMKVFIDKDTRYTGFLCPTLSNMSGISKYQASCPLGPTSGPSQSPSSSPSSTPSSSPSSTPSVSPSSTPSASPPGGPCRATYRTVNSWSGGYQGEVTVTAGGSAVNGWTVKWALSGGQSVTQVWNGTLSASGSNVSVSNASYNGSLGAGASTTFGFLANGTPSTPSPTCTSP [ESM021]”, the “purified protein yield per well” value in series [1] amounted to 275 µg. Also, the PET hydrolysis in series [2] (setting [9]), in series [2] (setting [10]), in series [2] (setting [11]), in series [2] (setting [12]), in series [2] (setting [13]) and in series [2] (setting [14]) was less than 3 each time. In addition, the PET hydrolysis was less than 3 in series [2] (setting [15]); less than 3 in series [2] (setting [16]); less than 3 in series [2] (setting [8]); 4.5 ± 0.71 in series [2] (setting [4]); 9 in series [2] (setting [5]); 9 ± 1.4 in series [2] (setting [6]). Further, the PET hydrolysis in series [2] (setting [17]), in series [2] (setting [18]), in series [2] (setting [19]) and in series [2] (setting [20]) was less than 3 in each case. The melting temperature in series [3] was determined as 68.8 C.

As to “ATNPYQRGPAPTAESISAERGSFAVADSAVSADSVSGFGGGTVYYPTDTSAGKFGAVAIAPGFTANEWSLAWLGPRLASHGFVVFIIDTITTGDQPAQRGDELRAALSYLTTSSPVRDRVDPARLGVMGHSMGGGGALQAAEDDPSIRAVIPMTPYDLDSPSPKVTAPTLIIGAQDDTIAPVAYHARPFYESLTSARAKEYIELRNQSHFAPNYPNATIASASIAWLKRYIDDDQRYQPFACPAQVGSWLISDFRSAC [DP034]”, in series [1], the “purified protein yield per well” value is 180 µg. The PET hydrolysis is less than 3 in series [2] (setting [10]); less than 3 in series [2] (setting [11]); less than 3 in series [2] (setting [12]); less than 3 in series [2] (substrate: aFilm, 40 °C, pH 8.5); less than 3 in series [2] (setting [14]); less than 3 in series [2] (setting [15]). Further, the PET hydrolysis is less than 3 in series [2] (setting [16]); less than 3 in series [2] (substrate: aFilm, 60 °C, pH 8.5); less than 3 in series [2] (setting [4]); less than 3 in series [2] (setting [5]); less than 3 in series [2] (setting [6]); less than 3 in series [2] (setting [7]). Also, the PET hydrolysis in series [2] (setting [18]) is less than 3; in series [2] (setting [19]), less than 3; in series [2] (setting [20]), less than 3; in series [2] (substrate: cryPow, 60 °C, pH 8.5) it was less than 3. For the same sequence, in series [3], the melting temperature was determined as 47.5 C.

Regarding “ATPDHAATADHASAHHHAAYPVSQQTIPATDGTGFGAATLYAPQGTGRKTLGAIVVAPGLKGDQSDLAWLAQDLAGEGFIVLNMDTLGKYDLPNQRSYEMLAAAKYLATASSVKDQVDPADIGVVGYSLGGGGALQAAVEQHGLKAAVALMPYDFPAGTTDPYKPTESPTYPGITTPTLVITGQADTTAPAASMGKPAYDSIPASTPKQYLELRGADHLAARATTNGTVRDAVTNFLKVYLDGNSAYRKYVCPAPPTSAAISESASSCPR [ESM174]”, the “purified protein yield per well” value in series [1] was 86.9 µg. In addition, the PET hydrolysis in series [2] (setting [8]), in series [2] (setting [4]), in series [2] (setting [5]), in series [2] (setting [6]), in series [2] (setting [17]) and in series [2] (setting [18]) was less than 3 throughout. The PET hydrolysis in series [2] (setting [19]) and in series [2] (setting [20]) was less than 3 throughout. Also, in series [3], the melting temperature worked out at 44.5 C.

For the sequence “ATTSFQRGPAPTTASIQATSGPFATSQTTVSRISVTGFGGGDIYYPTSTSSGTFGAVAIAPGYTALRSSMAWLAPRIASQGFVVFNIDTLTTSDQPATRGTELLAALDYLTTRSTVRTRIDTTRLAVMGHSMGGGGTLEAAKSRPSLQAAIPLTPWDLNKSFAGLAVPTLIIGAQADTVAPVSQHAKPFFTSLPSGLDKAYLELAGASHFAPNTSNTTIASISIAWLKRFVDDDTRYDQFLCPGPTVGTAVSQFTTNCPHIS [ESM156]”, in series [1], the “purified protein yield per well” value worked out at 272 µg. For the same sequence, the PET hydrolysis in series [2] (setting [9]), in series [2] (setting [10]), in series [2] (setting [11]), in series [2] (setting [12]), in series [2] (setting [13]) and in series [2] (setting [14]) was less than 3 each time. For the same sequence, the PET hydrolysis was less than 3 in series [2] (setting [15]); less than 3 in series [2] (setting [16]); less than 3 in series [2] (setting [8]); 9.5 ± 0.71 in series [2] (setting [4]); 14.5 ± 5 in series [2] (setting [5]); less than 3 in series [2] (setting [6]). The PET hydrolysis in series [2] (setting [17]), in series [2] (setting [18]), in series [2] (setting [19]) and in series [2] (setting [20]) was less than 3 throughout. The sequence further had a melting temperature in series [3] of 40.6 C.
